Source: PMC9127447, “The Lipid-Binding Defective Dynamin 2 Mutant in Charcot-Marie-Tooth Disease Impairs Proper Actin Bundling and Actin Organization in Glomerular Podocytes” (Frontiers in Cell and Developmental Biology, 2022)

Legend:
[1] = molecular target: Non-muscle actin (actin filaments) (UniProt P60709 1-375); experiment: cell-based or functional assay
[2] = molecular target: the molecule itself; experiment: cell-based or functional assay

| release of free phosphate (GTPase activity) by dynamin 2 (1.5 uM) with actin filaments (1 uM), 100 mM KCl, relative to that without actin [1] [fold] | Binder | GTPase activity under low ionic strength buffer, relative to dynamin 2-WT [2] |
| --- | --- | --- |
| 6 | His-tagged rat dynamin 2-WT (enzyme, UniProt P39052 1-870, looked up) MGNRGMEELIPLVNKLQDAFSSIGQSCHLDLPQIAVVGGQSAGKSSVLENFVGRDFLPRGSGIVTRRPLILQLIFSKTEYAEFLHCKSKKFTDFDEVRQEIEAETDRVTGTNKGISPVPINLRVYSPHVLNLTLIDLPGITKVPVGDQPPDIEYQIKDMILQFISRESSLILAVTPANMDLANSDALKLAKEVDPQGLRTIGVITKLDLMDEGTDARDVLENKLLPLRRGYIGVVNRSQKDIEGRKDIRAALAAERKFFLSHPAYRHMADRMGTPHLQKTLNQQLTNHIRESLPTLRSKLQSQLLSLEKEVEEYKNFRPDDPTRKTKALLQMVQQFGVDFEKRIEGSGDQVDTLELSGGARINRIFHERFPFELVKMEFDEKDLRREISYAIKNIHGVRTGLFTPDLAFEAIVKKQVVKLKEPCLKCVDLVIQELISTVRQCTSKLSSYPRLREETERIVTTYIREREGRTKDQILLLIDIEQSYINTNHEDFIGFANAQQRSTQLNKKRAIPNQGEILVIRRGWLTINNISLMKGGSKEYWFVLTAESLSWYKDEEEKEKKYMLPLDNLKIRDVEKGFMSNKHVFAIFNTEQRNVYKDLRQIELACDSQEDVDSWKASFLRAGVYPEKDQAENEDGAQENTFSMDPQLERQVETIRNLVDSYVAIINKSIRDLMPKTIMHLMINNTKAFIHHELLAYLYSSADQSSLMEESAEQAQRRDDMLRMYHALKEALNIIGDISTSTVSTPVPPPVDDTWLQNTSSHSPTPQRRPVSSVHPPGRPPAVRGPTPGPPLIPMPVGATSSFSAPPIPSRPGPQNVFANNDPFSAPPQIPSRPARIPPGIPPGVPSRRAPAAPSRPTIIRPAEPSLLD | – |
| 4 | His-tagged rat dynamin 2-K562E (enzyme, UniProt P39052 1-870, looked up) MGNRGMEELIPLVNKLQDAFSSIGQSCHLDLPQIAVVGGQSAGKSSVLENFVGRDFLPRGSGIVTRRPLILQLIFSKTEYAEFLHCKSKKFTDFDEVRQEIEAETDRVTGTNKGISPVPINLRVYSPHVLNLTLIDLPGITKVPVGDQPPDIEYQIKDMILQFISRESSLILAVTPANMDLANSDALKLAKEVDPQGLRTIGVITKLDLMDEGTDARDVLENKLLPLRRGYIGVVNRSQKDIEGRKDIRAALAAERKFFLSHPAYRHMADRMGTPHLQKTLNQQLTNHIRESLPTLRSKLQSQLLSLEKEVEEYKNFRPDDPTRKTKALLQMVQQFGVDFEKRIEGSGDQVDTLELSGGARINRIFHERFPFELVKMEFDEKDLRREISYAIKNIHGVRTGLFTPDLAFEAIVKKQVVKLKEPCLKCVDLVIQELISTVRQCTSKLSSYPRLREETERIVTTYIREREGRTKDQILLLIDIEQSYINTNHEDFIGFANAQQRSTQLNKKRAIPNQGEILVIRRGWLTINNISLMKGGSKEYWFVLTAESLSWYKDEEEKEKEYMLPLDNLKIRDVEKGFMSNKHVFAIFNTEQRNVYKDLRQIELACDSQEDVDSWKASFLRAGVYPEKDQAENEDGAQENTFSMDPQLERQVETIRNLVDSYVAIINKSIRDLMPKTIMHLMINNTKAFIHHELLAYLYSSADQSSLMEESAEQAQRRDDMLRMYHALKEALNIIGDISTSTVSTPVPPPVDDTWLQNTSSHSPTPQRRPVSSVHPPGRPPAVRGPTPGPPLIPMPVGATSSFSAPPIPSRPGPQNVFANNDPFSAPPQIPSRPARIPPGIPPGVPSRRAPAAPSRPTIIRPAEPSLLD | ~0.33 of dynamin 2-WT |
